Where “and” joins values, the source holds several entries; their conditions need not be identical. Equal values may be shown once.
How the values were obtained:
human type IL-13 [1] = biological target: T1, human type IL-13 (Homo sapiens, UniProt P35225, Q144R); assay: Binding of the antibody to IL-13
[2] = tested on: subjects with symptomatic eosinophilic esophagitis (EoE); assay: Phase 2 study in EoE patients: EoE endoscopic reference score (EREF); assay type: in vivo, human; conditions: treatment with RPC4046
Protocol: (§1) Safety was monitored throughout the study. […] The study was powered for the primary endpoint.
In further analysis, the mean eosinophilic esophagitis endoscopic reference score (EREF) in subjects at week 16 was analyzed for placebo and the two treatment arms. The EREF score is an additional secondary endpoint that is evaluated based on the presence of inflammatory markers (e.g., being positive for edema, exudates and/or furrows) and/or remodeling markers (e.g., being positive for fixed rings and/or strictures).
The results of the EREF study was further inspected by analyzing composite EREF score for inflammatory markers or remodeling markers.

[3] = tested on: subjects with symptomatic eosinophilic esophagitis (EoE); assay: Phase 2 study in EoE patients: mean esophageal eosinophil count in the 5 most inflamed HPF of esophageal biopsies; assay type: in vivo, human; conditions: for mean esophageal eosinophil count (EEOC Mean BL): baseline; for mean change from baseline in mean esophageal eosinophil count: baseline to week 16; for mean esophageal eosinophil count (EEOC Mean post): post treatment (week 16)
From the text: as §1
Additionally, various safety and tolerability endpoints are also measurable.
To maximize consistency, biopsies were obtained from proximal and distal esophagus (i.e., 4 biopsy fragments from each level) at screening. Additional biopsies from mid-esophagus was encouraged and effort was made to obtain subsequent biopsies from the same levels. The biopsies were blinded and read by single central pathologist. To be eligible for trial, subjects were evaluated for peak eosinophil count of ≥15/HPF, from 2 of 3 (proximal, mid-, and/or distal) levels of the esophagus at the screening endoscopy.

[4] = tested on: subjects with symptomatic eosinophilic esophagitis (EoE); assay: Phase 2 study in EoE patients: subject's global assessment of disease severity; assay type: in vivo, human; conditions: for subject's global assessment of disease severity, Mean change / subject's global assessment of disease severity, LSMD versus placebo: Change to Week 16; for subject's global assessment of disease severity, LSMD versus placebo: ANCOVA
Protocol: North America and Switzerland. […] Safety was monitored throughout the study. […] The study was powered for the primary endpoint. […] Still further, the effectiveness of RPC4046 (over placebo) in lowering a subject's global assessment of disease severity at week 16 was analyzed.

[5] = tested on: subjects with symptomatic eosinophilic esophagitis (EoE); assay: Phase 2 study in EoE patients: dysphagia symptom composite diary score (daily symptom diary, DSD); assay type: in vivo, human; design: dysphagia symptom composite diary score, Mean change / dysphagia symptom composite diary score, Mean / dysphagia symptom composite diary score, Median: scale not given here; conditions: for dysphagia symptom composite diary score, Mean change / dysphagia symptom composite diary score, LSMD versus placebo: Change to Week 16
From the text: Safety was monitored throughout the study. […] The study was powered for the primary endpoint. […]

human type IL-13 [6] = biological target: T1, human type IL-13; conditions: see US patent pub. No. 2014/0341913; cited from earlier work
other cytokines = assay: Binding of the antibody to other cytokines
[7] = tested on: subjects with symptomatic eosinophilic esophagitis (EoE); assay: Phase 2 study in EoE patients: EEsAI PRO score; assay type: in vivo, human; design: EEsAI PRO score, Mean / EEsAI PRO score, Median: scale not given here; conditions: for EEsAI PRO score, Mean change / EEsAI PRO score, LSMD versus placebo: Change to Week 16
Protocol: Additionally, a comparison of the mean EEsAI PRO scores at baseline and at week 16 between the placebo group and the treatment group was conducted.

[8] = biological target: IL-13 sequence variant, R110Q (Homo sapiens, UniProt P35225); assay: Binding of the antibody to IL-13 variant
Sequence of IL-13 sequence variant, R110Q (P35225 35-146, stated change not applied): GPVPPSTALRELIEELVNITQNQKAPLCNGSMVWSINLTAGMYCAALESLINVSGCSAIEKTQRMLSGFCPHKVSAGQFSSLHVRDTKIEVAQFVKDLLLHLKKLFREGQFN

[9] = tested on: subjects with symptomatic eosinophilic esophagitis (EoE); assay: Phase 2 study in EoE patients: clinician's global assessment of disease severity; assay type: in vivo, human; conditions: for clinician's global assessment of disease severity, Mean change / clinician's global assessment of disease severity, LSMD versus placebo: Change to Week 16; for clinician's global assessment of disease severity, LSMD versus placebo: ANCOVA
From the text: as §1

[10] = both low dose (180 mg) and high dose (360 mg)

T1 sequence (P35225 15-146 Q144R limits assumed): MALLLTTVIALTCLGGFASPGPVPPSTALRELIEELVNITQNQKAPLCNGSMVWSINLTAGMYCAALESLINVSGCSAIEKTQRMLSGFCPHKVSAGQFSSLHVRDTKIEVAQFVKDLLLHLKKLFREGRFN

B1: RPC4046: recombinant humanized, high-affinity, selective anti-IL-13 monoclonal antibody; heavy chain variable region SEQ ID NO: 2, light chain variable region SEQ ID NO: 3 (antibody, V domains shown)
VH: EVTLRESGPGLVKPTQTLTLTCTLYGFSLSTSDMGVDWIRQPPGKGLEWLAHIWWDDVKRYNPALKSRLTISKDTSKNQVVLKLTSVDPVDTATYYCARTVSSGYIYYAMDYWGQGTLVTVSS
VL: DIQMTQSPSSLSASVGDRVTISCRASQDIRNYLNWYQQKPGKAPKLLIFYTSKLHSGVPSRFSGSGSGTDYTLTISSLQPEDIATYYCQQGNTLPLTFGGGTKVEIK
- binding to human type IL-13 (human type IL-13 [1]): binds to human type IL-13
- selectivity for IL-13 (human type IL-13 [1]): highly selective for IL-13
- EREF total score at week 16 [2]: net lowering of EREF score
- mean esophageal eosinophil count (EEOC Mean BL) ([3]; 180 mg (LD)): 116.6 cells/hpf and 116.7 cells/hpf
- mean change from baseline in mean esophageal eosinophil count ([3]; 180 mg (LD)): −94.8 cells/hpf
- mean esophageal eosinophil count (EEOC Mean post) ([3]; 180 mg): 24.8 cells/hpf
- mean esophageal eosinophil count (EEOC Mean BL) ([3]; 360 mg (HD)): 122.6 cells/hpf
- mean change from baseline in mean esophageal eosinophil count ([3]; 360 mg (HD)): −99.9 cells/hpf
- mean esophageal eosinophil count (EEOC Mean post) ([3]; 360 mg): 25.5 cells/hpf
- mean esophageal eosinophil count at week 16 compared to the controls [3, 10]: statistically significant reduction
- subject's global assessment of disease severity, Mean ([4]; 180 mg, Baseline): 5.0
- subject's global assessment of disease severity, Median ([4]; 180 mg, Baseline): 5.0
- subject's global assessment of disease severity, Mean change ([4]; 180 mg): −2.0
- subject's global assessment of disease severity, LSMD versus placebo ([4]; 180 mg): −0.9
- subject's global assessment of disease severity, Mean ([4]; 180 mg, Week 16): 2.8
- subject's global assessment of disease severity, Median ([4]; 180 mg, Week 16): 3.0
- subject's global assessment of disease severity, Mean ([4]; 360 mg, Baseline): 5.4
- subject's global assessment of disease severity, Median ([4]; 360 mg, Baseline): 5.0
- subject's global assessment of disease severity, Mean change ([4]; 360 mg): −2.8
- subject's global assessment of disease severity, LSMD versus placebo ([4]; 360 mg): −1.3
- subject's global assessment of disease severity, Mean ([4]; 360 mg, Week 16): 2.5
- subject's global assessment of disease severity, Median ([4]; 360 mg, Week 16): 2.0
- subject's global assessment of disease severity at week 16 over placebo ([4]; treatment arm, 180 mg and 360 mg, week 16): dose-dependent reduction
- dysphagia symptom composite diary score, Mean ([5]; 180 mg, ITT, Baseline): 27.63 and 27.6
- dysphagia symptom composite diary score, Median ([5]; 180 mg, ITT, Baseline): 28.5
- dysphagia symptom composite diary score, Mean change ([5]; 180 mg, ITT): −5.3
- dysphagia symptom composite diary score, LSMD versus placebo ([5]; 180 mg, ITT, ANCOVA): 0.02
- dysphagia symptom composite diary score, Mean ([5]; 180 mg, ITT, Week 16): 21.9
- dysphagia symptom composite diary score, Median ([5]; 180 mg, ITT, Week 16): 26.1
- dysphagia symptom composite diary score, Mean change ([5]; 180 mg, non-steroid-refractory pts): −10.0
- dysphagia symptom composite diary score, LSMD versus placebo ([5]; 180 mg, non-steroid-refractory): 0.93
- dysphagia symptom composite diary score, Mean change ([5]; 180 mg, steroid-refractory pts): −1.3
- dysphagia symptom composite diary score, LSMD versus placebo ([5]; 180 mg, steroid-refractory): −1.3
- dysphagia symptom composite diary score, Mean ([5]; 360 mg, ITT, Baseline): 29.03 and 29
- dysphagia symptom composite diary score, Median ([5]; 360 mg, ITT, Baseline): 27.5
- dysphagia symptom composite diary score, Mean change ([5]; 360 mg, ITT): −13.3
- dysphagia symptom composite diary score, LSMD versus placebo ([5]; 360 mg, ITT, ANCOVA): −6.50
- dysphagia symptom composite diary score, Mean ([5]; 360 mg, ITT, Week 16): 15.3
- dysphagia symptom composite diary score, Median ([5]; 360 mg, ITT, Week 16): 6.2
- dysphagia symptom composite diary score, Mean change ([5]; 360 mg, non-steroid-refractory pts): −14.0
- dysphagia symptom composite diary score, LSMD versus placebo ([5]; 360 mg, non-steroid-refractory): −3.1
- dysphagia symptom composite diary score, Mean change ([5]; 360 mg, steroid-refractory pts): −12.3
- dysphagia symptom composite diary score, LSMD versus placebo ([5]; 360 mg, steroid-refractory): −12.0
- mean dysphagia symptom composite diary score at week 16 compared to the controls [5, 10]: reduction
- mean dysphagia symptom composite diary score in steroid-refractory subjects ([5]; subgroup analysis, 180 mg and 360 mg, week 16): dose-dependent reduction
- benefit on dysphagia composite diary score, steroid refractory versus non-steroid-refractory subgroup ([5]; subgroup analysis, over 16 weeks): steroid refractory sub-group benefited more
- binding affinity to helices A and D of interleukin 13 (IL-13) (human type IL-13 [6]): binds with great affinity
- binding to other cytokines (other cytokines): does not bind to other cytokines
- mean EEsAI PRO at week 16 ([7]; 180 mg and 360 mg, week 16): dose-dependent reduction
- EEsAI PRO score, Mean ([7]; 180 mg, Baseline): 58.1
- EEsAI PRO score, Median ([7]; 180 mg, Baseline): 61.0
- EEsAI PRO score, Mean change ([7]; 180 mg): −19.8
- EEsAI PRO score, LSMD versus placebo ([7]; 180 mg, ANCOVA): −4.0
- EEsAI PRO score, Mean ([7]; 180 mg, Week 16): 39.3
- EEsAI PRO score, Median ([7]; 180 mg, Week 16): 49.0
- EEsAI PRO score, LSMD versus placebo ([7]; 180 mg, non-steroid-refractory): 4.9
- EEsAI PRO score, Mean change ([7]; 180 mg, non-steroid-refractory): −20.4
- EEsAI PRO score, LSMD versus placebo ([7]; 180 mg, steroid refractory): −13.5
- EEsAI PRO score, Mean change ([7]; 180 mg, steroid refractory): −19.1
- EEsAI PRO score, Mean ([7]; 360 mg, Baseline): 56.2
- EEsAI PRO score, Median ([7]; 360 mg, Baseline): 58.0
- EEsAI PRO score, Mean change ([7]; 360 mg): −23.0
- EEsAI PRO score, LSMD versus placebo ([7]; 360 mg, ANCOVA): −7.2
- EEsAI PRO score, Mean ([7]; 360 mg, Week 16): 33.2
- EEsAI PRO score, Median ([7]; 360 mg, Week 16): 30.5
- EEsAI PRO score, LSMD versus placebo ([7]; 360 mg, non-steroid-refractory): −1.2
- EEsAI PRO score, Mean change ([7]; 360 mg, non-steroid-refractory): −25.2
- EEsAI PRO score, LSMD versus placebo ([7]; 360 mg, steroid refractory): −15.5
- EEsAI PRO score, Mean change ([7]; 360 mg, steroid refractory): −20.8
- mean EEsAI PRO score in the steroid refractory sub-group ([7]; sub-group analysis, week 16): statistically significant reduction
- binding to IL-13 sequence variant, R110Q [8]: binds
- clinician's global assessment of disease severity, Mean ([9]; 180 mg, Baseline): 6.7
- clinician's global assessment of disease severity, Median ([9]; 180 mg, Baseline): 7.0
- clinician's global assessment of disease severity, Mean change ([9]; 180 mg): −3.6
- clinician's global assessment of disease severity, LSMD versus placebo ([9]; 180 mg): −1.7
- clinician's global assessment of disease severity, Mean ([9]; 180 mg, Week 16): 2.9
- clinician's global assessment of disease severity, Median ([9]; 180 mg, Week 16): 2.0
- clinician's global assessment of disease severity, Mean ([9]; 360 mg, Baseline): 6.1
- clinician's global assessment of disease severity, Median ([9]; 360 mg, Baseline): 6.0
- clinician's global assessment of disease severity, Mean change ([9]; 360 mg): −2.9
- clinician's global assessment of disease severity, LSMD versus placebo ([9]; 360 mg): −1.3
- clinician's global assessment of disease severity, Mean ([9]; 360 mg, Week 16): 3.2
- clinician's global assessment of disease severity, Median ([9]; 360 mg, Week 16): 3.0
- clinician's global assessment of disease severity at week 16 ([9]; both the low and the high dose, week 16): achieved statistical significance

Source: patent US12129294B2, “Methods of treatment of diseases in which IL-13 activity is detrimental using anti-IL-13 antibodies” (AbbVie Inc., priority 2016, dated 2024)
